{"source": "paper PMC2635704", "target": "BjVIII, myotoxic Lys49-PLA2 from Bothrops jararacussu venom (Bothrops jararacussu)", "experiment": "tricine SDS-PAGE under non-reducing conditions", "data": [{"substance": "BjVIII, myotoxic Lys49-PLA2 from Bothrops jararacussu venom (natural protein)", "values": [{"measurement": "stoichiometry N", "result": 2}]}]}
